Data as given in patent US20170101472A1 (Regeneron, published 2017).
Substitutions are numbered along the chain they refer to. In names and notes the source's numbering stands.

B1: H4sH15498P2 (antibody, V domains shown)
VH: EVQLVESGGGLVQPGGSLRLSCAASGFTFTSYAMTWVRQAPGKGLEWVSDISGSGGRTYYADSVKGRFTISRDNSKNMLYLQMNILRAEDTAVYHCAKGTGQQVDLYNYYYALDVWGQGTTVTVSS
VL: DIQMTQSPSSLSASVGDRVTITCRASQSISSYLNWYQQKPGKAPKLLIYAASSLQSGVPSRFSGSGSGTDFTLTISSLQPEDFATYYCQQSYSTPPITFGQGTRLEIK
notes: H4sH = human IgG4 Fc with 2 or more amino acid changes as disclosed in US20140243504
B2: H4H15498P2 (antibody, human IgG4, V domains shown)
VH: B1 VH
VL: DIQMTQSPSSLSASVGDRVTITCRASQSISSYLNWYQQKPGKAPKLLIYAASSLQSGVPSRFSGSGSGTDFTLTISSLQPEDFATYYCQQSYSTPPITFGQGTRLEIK
notes: H4H = human IgG4 Fc with S108P hinge mutation
B3: H4sH15482P (antibody, human IgG4 S228P, kappa)
heavy: QVQLVESGGGVVQPGRSLRLSCVASGFTFSSYGMHWVRQAPGKGLEWVAIIWYDGSNKYYADSVKGRFTISRDNSKNTQYLQMNSLRAEDTAVYYCASVATSGDFDYYGMDVWGQGTTVTVSSASTKGPSVFPLAPCSRSTSESTAALGCLVKDYFPEPVTVSWNSGALTSGVHTFPAVLQSSGLYSLSSVVTVPSSSLGTKTYTCNVDHKPSNTKVDKRVESKYGPPCPPCPAPPVAGPSVFLFPPKPKDTLMISRTPEVTCVVVDVSQEDPEVQFNWYVDGVEVHNAKTKPREEQFNSTYRVVSVLTVLHQDWLNGKEYKCKVSNKGLPSSIEKTISKAKGQPREPQVYTLPPSQEEMTKNQVSLTCLVKGFYPSDIAVEWESNGQPENNYKTTPPVLDSDGSFFLYSRLTVDKSRWQEGNVFSCSVMHEALHNHYTQKSLSLSLGK
light: EIVLTQSPATLSLSPGERTTLSCRASQRISTYLAWYQQKPGQAPRLLIYDASKRATGIPARFSGSGSGTGFTLTISSLEPEDFAVYYCQQRSNWPLTFGGGTKVEIKRTVAAPSVFIFPPSDEQLKSGTASVVCLLNNFYPREAKVQWKVDNALQSGNSQESVTEQDSKDSTYSLSSTLTLSKADYEKHKVYACEVTHQGLSSPVTKSFNRGEC
notes: H4sH = modified human IgG4 Fc; also called mAb1
B4: H4H15482P (antibody, human IgG4 S228P, kappa)
heavy: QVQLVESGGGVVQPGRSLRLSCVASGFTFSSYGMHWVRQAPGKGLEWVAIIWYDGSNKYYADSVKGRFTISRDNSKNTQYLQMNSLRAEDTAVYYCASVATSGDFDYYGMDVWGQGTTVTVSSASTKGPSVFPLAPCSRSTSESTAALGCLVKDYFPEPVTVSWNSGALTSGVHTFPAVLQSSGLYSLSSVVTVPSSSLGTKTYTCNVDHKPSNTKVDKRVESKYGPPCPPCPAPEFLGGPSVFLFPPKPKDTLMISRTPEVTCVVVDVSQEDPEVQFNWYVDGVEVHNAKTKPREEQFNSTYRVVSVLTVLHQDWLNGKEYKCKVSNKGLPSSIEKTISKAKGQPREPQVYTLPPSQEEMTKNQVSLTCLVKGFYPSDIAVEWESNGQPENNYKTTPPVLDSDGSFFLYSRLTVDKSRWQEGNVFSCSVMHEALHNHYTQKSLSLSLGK
light: B3 light
notes: H4H = human IgG4 Fc with S108P
B5: H4H15479P (antibody, human IgG4, V domains shown)
VH: QVQLQQWGAGLLNPSETLSLTCAVYGGAFSDYYWNWIRQPPGKGLEWIGEINHRGSTNYNPSLKSRVTISVDTSKNQFSLRMSSVTAADAAVYYCARGEDYDIWNGYYQEKWGQGTLVTVSS
VL: EIVLTQSPATLSLSPGERATLSCRASQSISTYLAWYQQKPGQAPRLLIYDASKRATGIPARFSGSGSGTDFTLTISSLEPEDFVVYYCHQRSNWPLTFGGGTKVEIK
B6: H4H15483P (antibody, human IgG4, V domains shown)
VH: QVQLQQWGAGLLPPSETLSLICAVYGGSFSGYYWSWIRQPPGKGLEWIGEINHRGSTNYNPSLKSRATISVDTSKNQFSLKLSSVTAADTAVYYCSRGEDYYDSSGYSYYFDYWGQGTLVTVSS
VL: B5 VL with I29V, T31S, K53N, V84A, H89Q
notes: as for B2
B7: H4H14813N (antibody, human IgG4, V domains shown)
VH: QVQLQQWGAGLLKPSETLSLTCAVYGGSFSGYYWNWIRQPPGKGLEWVGEISHRGSTNYNPSLKSRVTISLDTSKNQFSLKLTSVTAADTAVYYCSRDEELEFRFFDYWGQGTLVTVSS
VL: B5 VL with I29V, T31S, I48V, D50G, K53N, V84A, V85F, H89Q
notes: as for B2
B8: H4sH14813N (antibody, human IgG4 S228P, kappa, V domains shown)
VH: B7 VH
VL: EIVLTQSPATLSLSPGERATLSCRASQSVSSYLAWYQQKPGQAPRLLVYGASNRATGIPARFSGSGSGTDFTLTISSLEPEDFAFYYCQQRSNWPLTFGGGTKVEIKR
notes: H4sH = modified human IgG4 Fc
B9: H4H17819P (antibody, human IgG4, V domains shown)
VH: EVQLVESGGGLVQPGGSLRLSCVASGFTFSLYAMTWVRQVPGKGLEWVSTISGSGGGTYYTDSVKGRFTISRDNSKNTLYLQMNSLRADDTAVFYCTKESTTGTYSYFYGMDVWGQGTTVTVSS
VL: DIQMTQSPSSLSASVGDRVTITCRASQTISSYLNWYQQKPGKAPKLLIYAASSLQSGVPSRFSGSGSGTDFTLTLSGLQPEDFATYYCQQSYSTPLTFGGGTKVEIK
notes: as for B2
B10: H4H17823P (antibody, human IgG4, V domains shown)
VH: EVQLLESGGGLVQPGGSLRLSCAASGFTFRSYAMSWVRQAPGKGLEWVSVISGGGGRTYYTDSVKGRFTISRDNSKSMLYLQMNSLRAEDTAIYYCAKERVTGIDHYYYGVDVWGQGTTVTVSS
VL: B9 VL with T28S, A51T, G66A, T74A, L75I, G77S, S93T
notes: as for B2

Target: T1, human LAG3 chimera (extracellular domain of human LAG3 and trans-membrane/cytoplasmic domain of human CD300a) … (human, UniProt P18627 23-450; Q9UGN4 181-299, limits assumed)
T1 sequence (looked up): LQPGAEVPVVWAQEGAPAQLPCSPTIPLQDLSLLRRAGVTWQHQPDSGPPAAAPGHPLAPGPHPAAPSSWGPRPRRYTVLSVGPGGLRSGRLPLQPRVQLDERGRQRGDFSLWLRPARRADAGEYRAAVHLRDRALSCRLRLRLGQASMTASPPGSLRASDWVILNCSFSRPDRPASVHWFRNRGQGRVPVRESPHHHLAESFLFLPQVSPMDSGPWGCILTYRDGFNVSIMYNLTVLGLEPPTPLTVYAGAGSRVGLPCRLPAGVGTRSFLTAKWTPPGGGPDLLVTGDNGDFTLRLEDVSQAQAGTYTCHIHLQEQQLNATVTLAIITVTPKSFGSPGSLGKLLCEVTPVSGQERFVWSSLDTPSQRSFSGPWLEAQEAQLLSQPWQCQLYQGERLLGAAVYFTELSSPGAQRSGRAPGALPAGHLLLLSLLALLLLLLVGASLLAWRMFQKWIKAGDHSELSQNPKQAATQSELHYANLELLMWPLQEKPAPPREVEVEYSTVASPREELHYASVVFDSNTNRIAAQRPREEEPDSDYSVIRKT
Assay: cell-based or functional assay

Compared with B1, B2 is lower in “EC50, AP1-Luc signaling, bispecific mode” value: greater than 100 nM for the first, 6.62 nM for the second.

Going from B3 to B4, the “EC50, AP1-Luc signaling, bispecific mode” value rises from 0.518 nM to greater than 100 nM.

Compared with B5, B6 is 25-fold higher in “EC50, AP1-Luc signaling, bispecific mode” value: 0.145 nM for the first, 3.69 nM for the second.

Compared with B7, B8 is 1.6-fold lower in “EC50, AP1-Luc signaling, bispecific mode” value: 1.07 nM for the first, 0.688 nM for the second.

B9 and B10 cannot be ordered by “EC50, AP1-Luc signaling, bispecific mode” value: greater than 100 nM for the first, greater than 100 nM for the second.

B1 and B2 are within 1.5-fold of each other in “EC50, AP1-Luc signaling, peptide mode” value: 4.61 nM for the first, 5.89 nM for the second.

Going from B3 to B4, the “EC50, AP1-Luc signaling, peptide mode” value rises from 0.806 nM to 2.48 nM (3.1-fold).

First: B5
Second: B6
The “EC50, AP1-Luc signaling, peptide mode” value of the first is 8.9-fold lower: 0.284 nM for the first, 2.54 nM for the second.

B7 and B8 are within 1.5-fold of each other in “EC50, AP1-Luc signaling, peptide mode” value: 1.01 nM for the first, 0.816 nM for the second.

Going from B9 to B10, the “EC50, AP1-Luc signaling, peptide mode” value falls from 2.12 nM to 0.688 nM (3.1-fold).

Target: T2, human LAG3 expressed on HEK293 cells (human, UniProt P18627 23-525)
T2 construct: also called hLAG3; HEK293/hLAG3
T2 sequence: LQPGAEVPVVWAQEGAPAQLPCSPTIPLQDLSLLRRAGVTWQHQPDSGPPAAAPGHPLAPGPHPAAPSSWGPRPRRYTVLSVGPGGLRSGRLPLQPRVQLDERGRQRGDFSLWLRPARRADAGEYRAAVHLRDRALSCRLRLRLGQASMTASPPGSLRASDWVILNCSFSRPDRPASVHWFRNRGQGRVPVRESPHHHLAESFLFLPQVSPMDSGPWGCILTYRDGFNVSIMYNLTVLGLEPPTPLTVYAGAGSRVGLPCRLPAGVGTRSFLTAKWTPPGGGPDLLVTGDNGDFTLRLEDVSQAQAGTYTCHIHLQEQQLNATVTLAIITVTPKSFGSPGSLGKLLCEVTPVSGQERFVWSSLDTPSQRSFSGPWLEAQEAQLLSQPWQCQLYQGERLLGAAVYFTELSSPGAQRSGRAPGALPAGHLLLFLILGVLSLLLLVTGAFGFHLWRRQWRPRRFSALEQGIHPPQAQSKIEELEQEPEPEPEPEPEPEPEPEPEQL
Assay: cell adherence assay, blocks A20 (mouse MHCII) cells on HEK293-hLAG3
Protocol: Cells were plated into sterile Nunclon™ Delta 96-Well MicroWell™ Black Optical Bottom Plates (Thermo Scientific). The wells from the perimeter of the plate were not included in the assay design to avoid edge effects.
On the day of treatment, all antibodies were serially (1:3) diluted in RPMI media (without FBS or supplements added). The 9-point dilution ranged between 45 pM to 300 nM, with the last dilution point containing no mAb. […] While the plated HEK293-LAG3 cells were incubating with the test or control antibodies, non-adherent B-cells (RAJI or A20) were labeled with Calcein AM using the following procedure. RAJI and A20 suspension cells were harvested and centrifuged at 1,200 rpm for 5 minutes. Cell pellets were resuspended in 1×PBS and counted. Cells were washed with RPMI, and resuspended in RPMI at a concentration of 10⁶ cells per 1 ml. Cells were labeled by adding 5 μL of Calcein AM per 1 ml of cell suspension and incubated for 30 min at 37° C., at 5% CO₂. […] Subsequently, 10 μL of BD Pharmingen Fc Block (0.5 mg/mL) was added per 1 ml of the Calcein AM labeled cells, which were incubated at RT for 10 minutes. The Calcein AM-stained, Fc-blocked RAJI or A20 cells were resuspended in RPMI to a final concentration of 3×10⁶ cells per 1 ml and subsequently used in the adherence assay.
The labeled suspension cells were incubated with the HEK293 monolayer for 1 hour at 37° C., at 5% CO₂.

B1 and B2 are within 1.5-fold of each other in IC50: 21 nM for the first, 30 nM for the second.

Compared with B3, B4 is 2.9-fold higher in IC50: 3.8 nM for the first, 11 nM for the second.

B5 and B6 are within 1.5-fold of each other in IC50: 11 nM for the first, 16 nM for the second.

B7 and B8 are the same in IC50: 10 nM for the first, 10 nM for the second.

First: B9
Second: B10
The IC50 of the first is 1.7-fold higher: 16 nM for the first, 9.4 nM for the second. The second is the more potent here.

Target: T2, human LAG3 expressed on HEK293 cells
Assay: electrochemiluminescence cell binding, HEK293-hLAG3
Protocol: To investigate the ability of a panel of anti-LAG3 monoclonal antibodies to bind cell-surface expressed LAG3, an in vitro binding assay utilizing human and monkey LAG3 expressing cell lines in an electrochemiluminescence based detection platform [Meso Scale Diagnostics, Rockville, Md.—(MSD)] was developed.
Experiments were carried out according to following procedure. Cells from the three cell lines described above were rinsed once in 1×PBS buffer without Ca²⁺/Mg²⁺ followed by 10-minute incubation at 37° C. with Enzyme Free Cell Dissociation Solution. […] Approximately 10,000 cells per well in the cell-washing buffer were seeded into the 96-well carbon electrode plates (MULTI-ARRAY high bind plate, MSD) and incubated for 1 hour at 37° C. to allow the cells to adhere. Nonspecific binding sites were blocked by 2% BSA (w/v) in PBS for 1 hour at room temperature. […] The plates were then washed to remove the unbound antibodies using an AquaMax2000 plate washer (MDS Analytical Technologies). The plate-bound antibodies were detected with a SULFO-TAG™-conjugated anti-human IgG antibody (MSD) for 1 hour at room temperature. After washes, the plates were developed with the Read Buffer (MSD) according to manufacturer's recommended procedure and the luminescent signals were recorded with a SECTOR Imager 6000 (MSD) instrument. The direct binding signals (in relative light units—RLU) were analyzed as a function of the antibody concentration and the data were fitted with a sigmoidal (four-parameter logistic) dose-response model using Graph Pad Prism™ software. The potency of each antibody was determined by calculating EC₅₀.

B1 and B2 are within 1.5-fold of each other in EC50: 2.87 nM for the first, 2.95 nM for the second.

Compared with B4, B5 is 2.1-fold higher in EC50: 24.7 nM for the first, 52 nM for the second. The first is the more potent here.

B6 and B7 are within 1.5-fold of each other in EC50: 17.2 nM for the first, 19.9 nM for the second.

First: B8
Second: B9
The EC50 of the first is 29-fold higher: 20.3 nM for the first, 0.69 nM for the second. The second is the more potent here.

Binder B10 has an EC50 of 1.5 nM.
